# In US8133683B2, “Methods for detecting biomolecules in a sample” (Taipei Medical University, priority 2009, dated 2012):
# “Also recorded” adds a separate entry of the source. Primed or numbered codes have the meaning given here. Ends that are not written are not given here. * marks the point of attachment. FITC = O=C1OC2(c3ccc(O)cc3Oc3cc(O)ccc32)c2ccc(NC(=S)*)cc21; FITC′ = fluorescein isothiocyanate label
# Columns and labels:
# [1] = target: T1, human serum albumin (HSA) (Homo sapiens, UniProt P02768); assay: CPBA, detecting HSA; type: binding; conditions: FIG. 4
# T1 construct: purchased Sigma-Aldrich A3782
# Experimental: (§1) The stock solutions of HSA, ovalbumin, and BGG were prepared as 125 μg/ml in HBS buffer (10 mM Hepes-pH 7.0, and 0.15 M NaCl). Aliquots of 30 μl of each protein placed in microplate wells were 2-fold serial diluted in HBS buffer. After an aliquot of 30 μl of freshly prepared reagent-A (6 μM FITC-RD18/FITC-KY15, 100 mM Hepes-pH 7.5, and 2 mM EDTA) was added to each well, the microplate was incubated at 37° C. for 30 minutes. An aliquot of 60 μl of reagent B (0.5 M Hepes-pH 8.0, and 2 mM EDTA) was then added to each well to adjust pH to 8.0 for optimal fluorescence detection. To remove all the free fluorescent peptides, MD-Charcoal suspension (200 μl per well) was added and incubated at room temperature for 5 minutes. […] Background level of fluorescence intensities was measured by replacing protein samples with HBS buffer. The binding capacities of antigens for the fluorescent peptide probes were expressed as net fluorescence intensity per well. All experiments were performed at least in triplicates for each datum point and the data were presented as means±SD.
# anti-KY15 antibody = assay: Charcoal-sorbent peptide binding assay (CPBA), detecting anti-KY15 antibody; conditions: FIG. 2B, anti-KY15 rabbit antiserum
# Experimental: (§2) Rabbit sera (30 μl/well) in microplate were 2-fold serially diluted in PBS buffer (137 mM NaCl, 2.7 mM KCl, 10 mM Na2HPO4, 2 mM KH2PO4, pH 7.4). After an aliquot of 30 μl of freshly prepared reagent-A (6 μM FITC-KY15, 100 mM Hepes-pH 7.5, and 2 mM EDTA) was added to each well, the microplate was incubated at 37° C. for 50 minutes. An aliquot of 60 μl of reagent B (0.5 M Hepes-pH 8.0, and 2 mM EDTA) was then added to each well to adjust pH to 8.0 for optimal fluorescence detection. To remove all the free fluorescent peptides, MD-Charcoal suspension (200 μl per well) was added, and the mixture was incubated at room temperature for 5 minutes. […] The binding capacity of antiserum for the fluorescent peptide probe was expressed as fluorescence intensity per well. All experiments were performed in triplicates for each datum point and the data were presented as means±SD.
# anti-FF15 antiserum = assay: CPBA, control serum anti-FF15 antiserum; type: binding, rabbit; conditions: FIG. 2B
# Experimental: as §2
# [2] = Capturing capacity and rate of MD-Charcoal for FITC-labeled molecules; conditions: for Remaining fluorescence intensities: 3 μM in 60 μl, Ex485/Em535, Gain 35, means±SD (n=3)
# Experimental: Aliquots of FITC-labeled molecules (3 μM in 60 μl) mixed with equal volume of reagent B (2 mM EDTA, 0.5 M Hepes-pH 8.0) were treated with MD-Charcoal (200 μl/well) at room temperature for 1, 5, or 10 minutes.
# Data were analyzed by one-way ANOVA and Tukey-HSD multiple range test, and presented as means±SD (n=3). Different successive superscript represents significant difference at p<0.05. The background value from empty well served as blank.
# [3] = CPBA, control non-immune rabbit serum; type: binding; conditions: FIG. 2B
# Experimental: as §2
# ovalbumin = target: T2, ovalbumin (Gallus gallus, UniProt P01012); assay: CPBA, control protein ovalbumin; type: binding, chicken; conditions: FIG. 4
# T2 construct: ovalbumin (#A5503; from chicken egg white; 99% in purity); purchased Sigma-Aldrich A5503; host or cells: chicken egg white
# T2 sequence (P01012 1-386): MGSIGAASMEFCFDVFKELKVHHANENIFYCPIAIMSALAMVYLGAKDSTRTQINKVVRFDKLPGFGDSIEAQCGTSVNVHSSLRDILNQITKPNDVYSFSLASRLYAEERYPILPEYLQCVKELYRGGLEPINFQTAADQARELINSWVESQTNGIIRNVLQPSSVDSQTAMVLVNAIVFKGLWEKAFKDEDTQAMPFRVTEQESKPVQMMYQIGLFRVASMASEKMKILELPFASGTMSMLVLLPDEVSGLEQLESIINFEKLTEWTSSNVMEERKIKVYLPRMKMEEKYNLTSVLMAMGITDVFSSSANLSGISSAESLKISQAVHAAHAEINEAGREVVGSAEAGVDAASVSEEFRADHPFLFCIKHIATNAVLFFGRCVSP
# Experimental: as §1
# [4] = system: bovine gamma globulin (BGG); assay: CPBA, control protein bovine gamma globulin; type: binding; conditions: FIG. 4
# Experimental: as §1
Substance,Binding of peptide probe with HSA [1],Binding of peptide probe with anti-KY15 antibody (anti-KY15 antibody),Affinity of anti-FF15 antiserum for the peptide probe (anti-FF15 antiserum),Remaining fluorescence intensities (% of No Treatment) ([2]; MD-Charcoal treatment 1 min),Remaining fluorescence intensities ([2]; MD-Charcoal treatment 1 min),Remaining fluorescence intensities (% of No Treatment) ([2]; MD-Charcoal treatment 5 min),Remaining fluorescence intensities ([2]; MD-Charcoal treatment 5 min),Remaining fluorescence intensities (% of No Treatment) ([2]; MD-Charcoal treatment 10 min),Remaining fluorescence intensities ([2]; MD-Charcoal treatment 10 min),Affinity of non-immune rabbit serum for the peptide probe [3],Interaction of ovalbumin with peptide probe (ovalbumin),"Specificity for albumin compared to control proteins, ovalbumin and bovine gamma globulin [1]",Interaction of bovine gamma globulin with peptide probe [4]
"FITC-KY15: N-terminal FITC-labeled peptide KY15, amino acid sequence KSVGRDEREDITYTY; peptide probe for anti-KY15 antibody ({FITC}-KSVGRDEREDITYTY)",did not have affinity,specific binding; also recorded: can be detected,did not show affinity,(0.6%),"1,320 ± 410^2b",(0.5%),"1,037 ± 33^2b",(0.4%),943 ± 29^2b,did not show affinity,–,–,–
"FITC-RD18: N-terminal FITC-labeled peptide RD18, amino acid sequence RLIEDICLPRWGCLWEDD; albumin-specific peptide probe ({FITC′}-RLIEDICLPRWGCLWEDD; cysteine pairing not given here)",linearly dose-dependent,–,–,–,–,–,–,–,–,–,did not interact,highly specific,did not interact
